For two substances, half effective concentration (EC50) of chemotaxis of BA/F3/huC5aR cells results are on record in patent publication US20180223285A1.

In the test the target is human C5a receptor (human) (UniProt P21730). As to the kind of experiment: cell-based or functional assay.
Chain of human C5a receptor (human) (P21730 whole entry): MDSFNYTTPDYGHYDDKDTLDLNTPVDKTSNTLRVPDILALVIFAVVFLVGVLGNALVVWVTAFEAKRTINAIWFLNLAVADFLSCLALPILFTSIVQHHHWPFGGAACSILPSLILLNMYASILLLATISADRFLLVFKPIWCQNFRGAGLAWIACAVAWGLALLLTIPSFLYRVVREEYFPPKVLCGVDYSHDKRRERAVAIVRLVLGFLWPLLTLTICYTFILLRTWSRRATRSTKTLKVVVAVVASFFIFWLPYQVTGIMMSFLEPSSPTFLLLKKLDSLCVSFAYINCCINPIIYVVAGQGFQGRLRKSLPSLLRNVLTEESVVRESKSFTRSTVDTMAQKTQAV

Substance “mouse C5a (from UniProt P06684 679-755) (ligand)” had a half effective concentration (EC50) of chemotaxis of BA/F3/huC5aR cells of 300 pM.

Substance “recombinant human C5a (from UniProt P01031 678-751) (ligand)” yielded a half effective concentration (EC50) of chemotaxis of BA/F3/huC5aR cells of 100 pM.
